{"source": "patent US8853165B2", "about": "“Peptide having the ability to regenerate bone tissue and for binding to apatite” (Nano Intelligent Biomedical Engineering Corporation Co., …, priority 2010, dated 2014)", "key": {"[1]": {"test_system": "rabbit calvarial defect", "assay": "In vivo stability of FITC-labeled peptide on bone mineral grafted into calvarial defect (confocal microscope, blood fluorometer)", "conditions": "10 mg and 20 mg bone mineral grafted, blood before and 1, 3, 7, 14, 21, 28 days after graft", "description": "In order to test in vivo stability, 10 equivalents of fluorescein isothiocyanate (FITC) was allowed to bind to the N-terminus by using triethylamine (1 ml per 1 g of resin) at the time of preparing the peptide of SEQ ID NO: 40. The peptide synthesis was confirmed by measuring the molecular weight thereof through MALDI-TOF.\nThe peptide of SEQ ID NO: 40, labeled with FITC, was precipitated in the bovine bone mineral (OCS-B, NIBEC). The resultant bone mineral was grafted into the rabbit calvarial defect, and then scarified after 4 weeks. After that, the bone mineral grafted into the calvarial defect was observed by using a confocal microscope (Olympus, Japan). The bone mineral with a binding peptide of SEQ ID NO: 40, labeled with FITC, in 10 mg and 20 mg was grafted into the rabbit calvarial defect. The blood was taken before the graft and 1 day, 3 days, 7 days, 14 days, 21 days, and 28 days after the graft, and then it was determined by using the Fluorometer whether or not the peptide was freed into the systemic blood."}, "[2]": {"assay": "Peptide release (elution) test from bone graft material in PBS at 37° C., HPLC", "type": "physicochemical, bovine", "conditions": "for Release of Peptide from Bone Mineral: PBS, 37° C., Lot Nos. 1-3", "description": "1200 mg of the peptide prepared in Example 1 was dissolved in 1 mL of tertiary distilled water, and then 4 g of bovine bone mineral (OCS-B, NIBEC) was added thereto, followed by deposition for 24 hours and then freeze-drying.\n4 g of a bone graft material with a binding peptide was input to 20 mL of PBS, and then the peptide release test was conducted at 37° C. After 7 days, 20 Ml of elution solvent that was initially introduced was completely removed, and then 20 Ml of new elution solvent was again added to proceed elution at 37° C. In the above manner, the peptide elution test was conducted for 14 days, 28 days, 56 days, 84 days, and 100 days. After completion of elution, the bone graft material was collected and the peptide content was measured.\n3 g of the bone graft material with a binding peptide was precisely weighed, and then made into powder. About 2 g of the powder corresponding to 160 mg of peptide was precisely weighed, which was then input to 40 mL of Solution A as mobile phase, followed by sonication for 1 hour. After that, extraction was conducted while stirring at 37±2° C. for 24 hours, and then the upper layer of the extracted solvent was separated by centrifuging at 3000 rpm for 10 minutes and then filtration with a 0.22 μm millipore filter. 1 mL thereof was taken therefrom, and mixed with 3 mL of Solution A, which was then filtered through a 0.22 μm millipore filter, then the filtrate was used as the test liquid.\nThe peptide standard product was dried in the desiccator (silica gel) for 5 hours, and then 10 mg thereof was precisely weighed, which was then dissolved by the addition of Solution A as a mobile phase, and then exactly 10 mL thereof was used as a standard liquid.\nThe test liquid and the standard liquid each 10 μl were tested under the following operating conditions for liquid chromatography, to obtain test liquid and standard liquid peak areas, AT and AS. Amount of peptide (mg)=amount of peptide standard product (mg)×\nMeter: Analytical HPLC (Shimadzu, Japan)\nColumn: Filled with C18-bonded silica gel with 5 μm size (length: […], inner diameter: 4.6 mm)\nMobile phase: 0.1% trifluoroacetic acid/DDW (Solution A) 0.098% trifluoroacetic acid/acetonitrile (Solution B)\nDetector: UV absorption spectrometer (measurement wavelength: 230 nm)\nColumn temperature: Constant at approximately 40° C."}, "[3]": {"test_system": "rabbit calvarial defect", "assay": "In vivo bone regeneration capacity of peptide-bound bone graft material in calvarial defect", "parameters": "species or system rabbit (NewZealand white rabbit)", "conditions": "peptide bound to bone graft material, 50 mg per 8 mm defect, 2 weeks after graft, histology", "from_the_text": "Each of the peptides of SEQ ID NO: 35, SEQ ID NO: 36, and SEQ ID NO: 40, prepared in Example 1, was allowed to bind to a bone graft material by the same method as Example 2, which was then grafted into the rabbit calvarial defect. The bone regeneration capacity thereof was confirmed. An 8 mm-diameter circular bone defect was formed in the calvarial region of the anesthetized rabbit (NewZealand white rabbit, specific name: cuniculus). The bone graft material and the peptide-containing bone graft material were grafted into the bone defect with 50 mg for each defect, and the periosteum and skin were doubly sutured. The animal was sacrificed 2 weeks after the graft, and the taken sample was fixed in the formaline solution. The tissue was subjected to embedding to prepare a 20 μm-thick specimen. The prepared specimen was stained with basic fuchsin and toluidine blue to produce a nondemineralized sample. The thus produced sample was observed by an optical microscope, and photographed."}}, "note": "Values joined by “and” are separate entries in the source; they are usually repeats but may differ in a detail not shown here. Equal entries are not always repeated. Residues, ends and D or L forms follow the SMILES beside them. *: point of attachment. FITC = O=C1OC2(c3ccc(O)cc3Oc3cc(O)ccc32)c2ccc(NC(=S)*)cc21"}
{"compound": "CC[C@H](C)[C@H](NC(=O)[C@H](CC(=O)O)NC(=O)[C@@H]1CCCN1C(=O)[C@H](CCCNC(=N)N)NC(=O)[C@H](CCCNC(=N)N)NC(=O)[C@H](Cc1ccccc1)NC(=O)[C@H](CCCCN)NC(=O)[C@H](CCCCN)NC(=O)[C@H](CO)NC(=O)[C@H](CCCCN)NC(=O)[C@H](CO)NC(=O)[C@H](CCCNC(=N)N)NC(=O)[C@H](CC(C)C)NC(=O)CNC(=O)[C@H](Cc1ccc(O)cc1)NC(=O)[C@H](CCC(=O)O)NC(=O)[C@H](CCCNC(=N)N)NC(=O)[C@H](CO)NC(=O)[C@H](Cc1ccccc1)NC(=O)[C@H](CCC(=O)O)NC(=O)[C@H](Cc1c[nH]cn1)NC(=O)[C@@H]1CCCN1C(=O)[C@@H](NC(=O)[C@@H]1CCCN1C(=O)[C@H](CC(C)C)NC(=O)[C@@H](NC(=O)[C@H](CO)NC(=S)Nc1ccc2c(c1)C(=O)OC21c2ccc(O)cc2Oc2cc(O)ccc21)[C@@H](C)O)[C@@H](C)CC)C(=O)N[C@@H](CCC(N)=O)C(=O)N[C@@H](Cc1ccc(O)cc1)C(=O)N1CCC[C@H]1C(=O)N[C@@H](CC(=O)O)C(=O)N[C@@H](C)C(=O)N[C@H](C(N)=O)[C@@H](C)O", "note": "[SEQ ID NO: 40, labeled with FITC] ({FITC}-STLPIPHEFSREYGLRSKSKKFRRPDIQYPDAT-NH2)", "values": [{"measurement": "RFI values of blood (peptide freed into systemic blood)", "setting": "[1]", "result": "no differences as compared with the values before the graft"}]}
{"compound": "NH2-STLPIPHEFSRE-YGLRSKSKKFRRPDIQYPDAT-COONH2 (H-STLPIPHEFSREYGLRSKSKKFRRPDIQYPDAT-NH2) [SEQ ID NO: 40]", "values": [{"measurement": "Content of Peptide Remaining in Bone Mineral", "setting": "[2]; after ending the 100 day elution, Lot Nos. 1, 2, 3", "result": "9.2 mg and 9.18 mg and 9.78 mg and 9.19 mg"}, {"measurement": "Release of Peptide from Bone Mineral", "setting": "[2]; day 7", "result": 0, "unit": "mg"}, {"measurement": "Release of Peptide from Bone Mineral", "setting": "[2]; day 14", "result": 0, "unit": "mg"}, {"measurement": "Release of Peptide from Bone Mineral", "setting": "[2]; day 28", "result": 0, "unit": "mg"}, {"measurement": "Release of Peptide from Bone Mineral", "setting": "[2]; day 56", "result": 0, "unit": "mg"}, {"measurement": "Release of Peptide from Bone Mineral", "setting": "[2]; day 84", "result": 0, "unit": "mg"}, {"measurement": "Release of Peptide from Bone Mineral", "setting": "[2]; day 100", "result": 0, "unit": "mg"}, {"measurement": "peak of the peptide in the elution liquid", "setting": "[2]; elution test for 100 days, Lot No. 1, 2 and 3, retention time 14.196 min", "result": "not observed"}, {"measurement": "bone regeneration effect", "setting": "[3]", "result": "remarkably increased bone regeneration capacity as compared with A and B"}]}
{"compound": "YGLRSKSKKFRRPDIQYPDAT (partial peptide of bone sialoprotein) [SEQ ID NO: 35]", "values": [{"measurement": "bone regeneration effect", "setting": "[3]", "result": "increased bone regeneration effect as compared with A"}]}
{"compound": "STLPIPHEFSRE (apatite binding peptide) [SEQ ID NO: 36]", "values": [{"measurement": "bone regeneration effect", "setting": "[3]", "result": "smallest"}]}
